US20260248972A1, “DUAL RECEPTOR TARGETING RADIOLIGANDS AND USES THEREOF RELATED APPLICATIONS” (priority 2022, published 2026)

How the values were obtained:
CCK2R = biological target: T1, CCK2R (Rattus norvegicus, UniProt P30553); assay: Competitive cell-binding assay on AR42J cells with 125I-C3 as competitive ligand; conditions: for Relative Binding Affinity CCK2R: based on mean IC50, C-2 = 1.00; for IC50: AR42J cells, 125I-C3 competitive ligand, 37° C. 1 h, read-out: CCK2R/IC50
T1 construct: host or cells: AR42J cells
T1 sequence (P30553 1-452): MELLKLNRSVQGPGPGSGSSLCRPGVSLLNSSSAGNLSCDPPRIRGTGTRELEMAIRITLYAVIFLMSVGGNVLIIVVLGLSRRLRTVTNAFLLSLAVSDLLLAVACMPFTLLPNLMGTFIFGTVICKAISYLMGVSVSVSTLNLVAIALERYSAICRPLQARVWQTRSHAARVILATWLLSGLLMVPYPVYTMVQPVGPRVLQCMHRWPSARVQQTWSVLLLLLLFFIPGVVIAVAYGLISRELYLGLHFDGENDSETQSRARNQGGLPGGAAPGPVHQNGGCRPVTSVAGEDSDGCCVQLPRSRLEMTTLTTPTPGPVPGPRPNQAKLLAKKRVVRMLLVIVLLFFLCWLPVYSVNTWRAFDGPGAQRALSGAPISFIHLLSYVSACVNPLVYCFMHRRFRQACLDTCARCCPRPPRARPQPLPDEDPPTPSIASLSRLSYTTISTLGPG
Protocol: (§1) AR42J cells (ATCC) were maintained in RPMI-1640 medium (Gibco) supplemented with 15% fetal bovine serum (Gibco) and 1% penicillin-streptomycin (BI) at 37° C. in a humidified incubator with 5% CO2. The culture medium was replaced with fresh medium every 2-3 days. Experiments were performed with cells at 70-80% confluence.
(§2) Binding Affinity Tested by Using ^125I-Labeled Competitive Ligands.
(§3) The binding affinities of test compounds were determined by a competitive cell-binding assay using ^125I-C1 and ^125I-C3 as the competitive ligand. The suspended AR42J cells at a density of 1~3×10^6 cells/mL in binding buffer (RPMI-1640 medium supplemented with 0.25% bovine serum albumin) were transferred to a MultiScreen-DV Filter Plate (Millipore) with 100 μL per well except the blank group where the binding buffer was used instead. The cells were then incubated with ^125I-C1 and ^125I-C3 (0.02 μCi/well) in the presence of increasing concentrations (0-10000 nM) of test compounds at 37° C. for 1 h (n=3). The final volume in each well was maintained at 200 μL and insufficient volume was adjusted by the binding buffer. After the 1 h incubation, unbound ^125I-competitive ligands were removed by filtration using a Multiscreen vacuum manifold (Millipore) followed by rinses with the binding buffer (3 times). The filters were collected, and their radioactivity were individually measured by γ counter (2480 WIZARD2, PerkinElmer). The best-fit IC50value (inhibitory concentration when 50% of the bound ^125I-C1 and ^125l I-C3 on cells were displaced) of test compounds were calculated by fitting the data with nonlinear regression using GraphPad Prism 8.0.1.

SSTR2 = biological target: T2, SSTR2 (Rattus norvegicus, UniProt P30680); assay: Competitive cell-binding assay on AR42J cells with 125I-C1 as competitive ligand; conditions: for Relative Binding Affinity SSTR2: based on mean IC50, C-1 = 1.00; for IC50: AR42J cells, 125I-C1 competitive ligand, 37° C. 1 h, read-out: SSTR2/IC50
T2 construct: host or cells: AR42J cells
T2 sequence (P30680 whole entry): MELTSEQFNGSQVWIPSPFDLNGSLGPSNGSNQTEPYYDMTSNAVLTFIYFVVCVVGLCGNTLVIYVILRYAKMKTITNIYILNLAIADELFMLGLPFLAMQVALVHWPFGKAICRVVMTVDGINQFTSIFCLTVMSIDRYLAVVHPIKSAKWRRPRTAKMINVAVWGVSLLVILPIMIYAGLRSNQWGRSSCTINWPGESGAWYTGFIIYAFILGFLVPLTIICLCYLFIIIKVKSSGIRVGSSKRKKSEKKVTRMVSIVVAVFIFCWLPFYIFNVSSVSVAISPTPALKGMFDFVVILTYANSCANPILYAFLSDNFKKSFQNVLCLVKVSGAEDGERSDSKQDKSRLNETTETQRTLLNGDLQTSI
Protocol: as §1, §2, §3

in vivo = conditions: BALB/c nude, mouse, in vivo, iv, total radioactivity
Outline: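 Compounds labelled with ^177Lu in 0.5 M NaOAc pH 4.5 at 95° C for 15 min, then used directly or diluted in PBS with 3 mg/mL ascorbate. BALB/c nude mice bore subcutaneous AR42J flank xenografts (0.05-0.50 g). Organs excised at 4, 24 and 72 h post-injection and γ-counted for % ID and % ID/g.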

SMILES | Relative Binding Affinity CCK2R (CCK2R) | Relative Binding Affinity SSTR2 (SSTR2) | IC50 (CCK2R) [nM] | IC50 (SSTR2) [nM] | tissue to tissue ratio at 24 h (in vivo; T/K Tumor/Kidney ratio) | tissue to tissue ratio at 24 h (in vivo; T/L Tumor/Liver ratio) | tissue to tissue ratio at 24 h (in vivo; T/P Tumor/Pancreas ratio) | tissue to tissue ratio at 24 h (in vivo; T/Sp Tumor/Spleen ratio) | tissue to tissue ratio at 24 h (in vivo; T/St Tumor/Stomach ratio) | tissue uptake at 24 h (in vivo; uptake Kidney) [%ID/g] | tissue uptake at 24 h (in vivo; uptake Liver) [%ID/g] | tissue uptake at 24 h (in vivo; uptake Pancreas) [%ID/g] | tissue uptake at 24 h (in vivo; uptake Spleen) [%ID/g] | tissue uptake at 24 h (in vivo; uptake Stomach) [%ID/g] | tissue uptake at 24 h (in vivo; uptake Tumor) [%ID/g]
C[C@@H](O)[C@H](NC(=O)[C@@H]1CSSC[C@H](NC(=O)[C@@H](Cc2ccccc2)NC(=O)CC[C@H](NC(=O)[C@H](CCCCNC(=O)CC[C@H](NC(=O)CNC(=O)c2cccc(NC(=O)N[C@@H]3CN(C4CCCCC4)c4ccccc4N(CC(=O)C(C)(C)C)C3=O)c2)C(=O)O)NC(=O)CC[C@H](NC(=O)CN2CCN(CC(=O)O)CCN(CC(=O)O)CCN(CC(=O)O)CC2)C(=O)O)C(=O)O)C(=O)N[C@@H](Cc2ccc(O)cc2)C(=O)N[C@H](Cc2c[nH]c3ccccc23)C(=O)N[C@@H](CCCCN)C(=O)N[C@@H]([C@@H](C)O)C(=O)N1)C(=O)O [Compound I-9, DOTA-gE-K(-gE-G-Z360)-gE-f[CYwKTC]T-OH] | 13.5 | 2.85 |  |  | 0.3 | 8.3 | 3.8 | 11 | 3.4 | 42.2 | 1.31 | 2.89 | 1.03 | 3.22 | 10.9
C[C@@H](O)[C@H](NC(=O)[C@@H]1CSSC[C@H](NC(=O)[C@@H](Cc2ccccc2)NC(=O)COCCOCCNC(=O)C(CCCCNC(=O)CC[C@H](NC(=O)CNC(=O)c2cccc(NC(=O)N[C@@H]3CN(C4CCCCC4)c4ccccc4N(CC(=O)C(C)(C)C)C3=O)c2)C(=O)O)NC(=O)COCCOCCNC(=O)CC[C@H](NC(=O)CC[C@H](NC(=O)CN2CCN(CC(=O)O)CCN(CC(=O)O)CCN(CC(=O)O)CC2)C(=O)O)C(=O)O)C(=O)N[C@@H](Cc2ccc(O)cc2)C(=O)N[C@H](Cc2c[nH]c3ccccc23)C(=O)N[C@@H](CCCCN)C(=O)N[C@@H]([C@@H](C)O)C(=O)N1)C(=O)O (stereo in doubt) [Compound I-14, DOTA-gE-gE-OEG-K(-gE-G-Z360)-OEG-f[CYwKTC]T-OH] | 3.80 | 3.50 |  |  | 0.2 | 6.7 | 4.4 | 27 | 6.6 | 68.6 | 2.24 | 3.37 | 0.56 | 2.25 | 14.9
C[C@@H](O)[C@H](NC(=O)[C@@H]1CSSC[C@H](NC(=O)[C@@H](Cc2ccccc2)NC(=O)COCCOCCNC(=O)COCCOCCNC(=O)[C@H](CCCCNC(=O)c2cccc(NC(=O)N[C@@H]3CN(C4CCCCC4)c4ccccc4N(CC(=O)C(C)(C)C)C3=O)c2)NC(=O)CN2CCN(CC(=O)O)CCN(CC(=O)O)CCN(CC(=O)O)CC2)C(=O)N[C@@H](Cc2ccc(O)cc2)C(=O)N[C@H](Cc2c[nH]c3ccccc23)C(=O)N[C@@H](CCCCN)C(=O)N[C@@H]([C@@H](C)O)C(=O)N1)C(=O)O [Compound I-39, DOTA-K(Z360)-OEG-OEG-f[CYwKTC]T-OH] | 3.4 | 7.67 | 4.9 | 0.367 | 2.3 | 9.9 | 29 | 89 | 5.9 | 12 | 2.78 | 0.94 | 0.31 | 4.63 | 27.5
C[C@@H](O)[C@H](NC(=O)[C@@H]1CSSC[C@H](NC(=O)[C@@H](Cc2ccccc2)NC(=O)COCCOCCNC(=O)[C@H](CCCCNC(=O)CC[C@H](NC(=O)CNC(=O)c2cccc(NC(=O)NC3CN(C4CCCCC4)c4ccccc4N(CC(=O)C(C)(C)C)C3=O)c2)C(=O)O)NC(=O)COCCOCCNC(=O)COCCOCCNC(=O)[C@@H](N)CCCCNC(=O)[C@@H](N)CCCCNC(=O)CN2CCN(CC(=O)O)CCN(CC(=O)O)CCN(CC(=O)O)CC2)C(=O)N[C@@H](Cc2ccc(O)cc2)C(=O)N[C@H](Cc2c[nH]c3ccccc23)C(=O)N[C@@H](CCCCN)C(=O)N[C@@H]([C@@H](C)O)C(=O)N1)C(=O)O (stereo partly drawn) [Compound I-65, DOTA-eK-eK-OEG-OEG-K(-gE-G-Z360)-OEG-f[CYwKTC]T-OH] | 1.8 | 20.7 | 9.4 | 0.136 |  |  |  |  |  |  |  |  |  |  | 
CCCC[C@H](NC(=O)[C@H](Cc1c[nH]c2ccccc12)NC(=O)CNC(=O)[C@H](Cc1ccc(O)cc1)NC(=O)[C@H](C)NC(=O)[C@@H](CCC(=O)O)NC(=O)[C@@H](CCC(=O)O)NC(=O)[C@@H](CCC(=O)O)NC(=O)[C@@H](CCC(=O)O)NC(=O)[C@@H](CCC(=O)O)NC(=O)[C@@H](CCC(=O)O)NC(=O)CN1CCN(CC(=O)O)CCN(CC(=O)O)CCN(CC(=O)O)CC1)C(=O)N[C@@H](CC(=O)O)C(=O)N[C@@H](Cc1ccccc1)C(N)=O [Compound C-2, DOTA-e-e-e-e-e-e-AYGW-Nle-DF-NH2, reference compound] | 1.00 | <0.001 | 17 |  |  |  |  |  |  |  |  |  |  |  | 

The next lines start with results.

Relative Binding Affinity CCK2R (CCK2R) | Relative Binding Affinity SSTR2 (SSTR2) | IC50 (CCK2R) [nM] | IC50 (SSTR2) [nM] | SMILES | tissue to tissue ratio at 24 h (in vivo; T/K Tumor/Kidney ratio) | tissue to tissue ratio at 24 h (in vivo; T/L Tumor/Liver ratio) | tissue to tissue ratio at 24 h (in vivo; T/P Tumor/Pancreas ratio) | tissue to tissue ratio at 24 h (in vivo; T/Sp Tumor/Spleen ratio) | tissue to tissue ratio at 24 h (in vivo; T/St Tumor/Stomach ratio) | tissue uptake at 24 h (in vivo; uptake Kidney) [%ID/g] | tissue uptake at 24 h (in vivo; uptake Liver) [%ID/g] | tissue uptake at 24 h (in vivo; uptake Pancreas) [%ID/g] | tissue uptake at 24 h (in vivo; uptake Spleen) [%ID/g] | tissue uptake at 24 h (in vivo; uptake Stomach) [%ID/g] | tissue uptake at 24 h (in vivo; uptake Tumor) [%ID/g]
275 | 0.78 |  |  | C[C@@H](O)[C@H](NC(=O)[C@@H]1CSSC[C@H](NC(=O)[C@@H](Cc2ccccc2)NC(=O)COCCOCCNC(=O)[C@H](CCCCNC(=O)CC[C@H](NC(=O)CNC(=O)c2cccc(NC(=O)N[C@@H]3CN(C4CCCCC4)c4ccccc4N(CC(=O)C(C)(C)C)C3=O)c2)C(=O)O)NC(=O)CC[C@H](NC(=O)CC[C@H](NC(=O)CN2CCN(CC(=O)O)CCN(CC(=O)O)CCN(CC(=O)O)CC2)C(=O)O)C(=O)O)C(=O)N[C@@H](Cc2ccc(O)cc2)C(=O)N[C@H](Cc2c[nH]c3ccccc23)C(=O)N[C@@H](CCCCN)C(=O)N[C@@H]([C@@H](C)O)C(=O)N1)C(=O)O [Compound I-10, DOTA-gE-gE-K(-gE-G-Z360)-OEG-f[CYwKTC]T-OH] |  |  |  |  |  |  |  |  |  |  | 
12.1 | 3.60 | 1.4 | 0.781 | C[C@@H](O)C(NC(=O)[C@@H]1CSSC[C@H](NC(=O)[C@@H](Cc2ccccc2)NC(=O)COCCOCCNC(=O)[C@H](CCCCNC(=O)CC[C@H](NC(=O)CNC(=O)c2cccc(NC(=O)N[C@@H]3CN(C4CCCCC4)c4ccccc4N(CC(=O)C(C)(C)C)C3=O)c2)C(=O)O)NC(=O)COCCOCCNC(=O)CCC(C(=O)O)N2CCN(CC(=O)O)CCN(CC(=O)O)CCN(CC(=O)O)CC2)C(=O)N[C@@H](Cc2ccc(O)cc2)C(=O)N[C@H](Cc2c[nH]c3ccccc23)C(=O)N[C@@H](CCCCN)C(=O)N[C@@H]([C@@H](C)O)C(=O)N1)C(=O)O (stereo in doubt) [Compound I-20, DOTAGA- OEG- K(-gE- G- Z360)- OEG- f[CYwKTC]T- OH] |  |  |  |  |  |  |  |  |  |  | 
